Reference: patent US20230008090A1 (WUXI BIOLOGICS IRELAND, published 2023)
Blank lines part the entries; values can stand above or below the binder they belong to.

Experiments:
[1] = biological target: T1, human CD3 on Jurkat.2B8 (CD3+/EGFR-) cells (human, UniProt P07766 23-207); assay: flow cytometry on Jurkat.2B8 (CD3+/EGFR-) cells
T1 construct: whole, on cells; CD3 complex on cells; also called hCD3
Procedure: Binding of EGFR×CD3 bispecific antibodies to human CD3 and EGFR expressing cells was determined by flow cytometry.
(§1) After washing twice with cold PBS supplemented with 1% bovine serum albumin (wash buffer), cell surface bound antibody was detected by incubating the cells with Fluorescence-labeled anti-human IgG antibody for 30 minutes at 4° C. Cells were washed twice in the same buffer and the mean fluorescence (MFI) of stained cells was measured using a FACS Canto II cytometer (BD Biosciences). Wells containing no antibody or secondary antibody only were used to establish background fluorescence. Four-parameter non-linear regression analysis was used to obtain EC₅₀ values for cell binding using GraphPad Prism software.

[2] = biological target: T2, cynomolgus monkey CD3 on cynomolgus monkey PBMC / T cells (cynomolgus monkey, UniProt Q95LI5 22-198); assay: flow cytometry on cyno T cells (cynomolgus monkey PBMC)
T2 construct: whole, on cells; CD3 complex on primary cells; also called cyno CD3
T2 sequence (Q95LI5 22-198): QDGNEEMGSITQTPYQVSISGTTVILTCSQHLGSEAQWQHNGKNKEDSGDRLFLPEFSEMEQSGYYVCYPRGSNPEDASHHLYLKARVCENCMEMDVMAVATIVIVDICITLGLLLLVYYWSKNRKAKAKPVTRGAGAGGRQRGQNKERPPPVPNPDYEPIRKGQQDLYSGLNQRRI
Procedure: (§2) Binding of EGFR×CD3 bispecific antibodies to cynomolgus monkey CD3 and EGFR expressing cells was determined by flow cytometry.
as §1, with “Briefly, 1×10⁵ cynomolgus monkey PBMC(CD3+/EGFR−) cells or CHOK1-cynoPro1 (EGFR+/CD3−) cells were incubated for 60 minutes at 4° C. with serial dilutions of EGFR×CD3 bispecific or hIgG4 isotype control antibodies. After” for “After”

[3] = biological target: T1, human CD3 on Jurkat.2B8 (CD3+/EGFR-) …; assay: FACS affinity on Jurkat.2B8 cells, quantitative beads
Procedure: Tested antibodies were serially diluted in wash buffer (1×PBS/1% BSA) and incubated with cells at 4° C. for 1 h. […] The cells were then washed once and re-suspended in 1×PBS/1% BSA, and analyzed by flow cytometry. Fluorescence intensity will be converted to bound molecules/cell based on the quantitative beads (Quantum™ MESF Kits, Bangs Laboratories, Inc.).

[4] = biological target: T3, cynomolgus monkey EGFR on CHOK1-cynoPro1 (EGFR+/CD3-) cells (cynomolgus monkey, UniProt A0A2K5WK39 25-1210); assay: flow cytometry on CHOK1-cynoPro1 cells
T3 construct: whole, on cells; also called cyno EGFR
Procedure: as §2
as §1, with “Briefly, 1×10⁵ cynomolgus monkey PBMC(CD3+/EGFR−) cells or CHOK1-cynoPro1 (EGFR+/CD3−) cells were incubated for 60 minutes at 4° C. with serial dilutions of EGFR×CD3 bispecific or hIgG4 isotype control antibodies. After” for “After”

T1 sequence (P07766 23-207): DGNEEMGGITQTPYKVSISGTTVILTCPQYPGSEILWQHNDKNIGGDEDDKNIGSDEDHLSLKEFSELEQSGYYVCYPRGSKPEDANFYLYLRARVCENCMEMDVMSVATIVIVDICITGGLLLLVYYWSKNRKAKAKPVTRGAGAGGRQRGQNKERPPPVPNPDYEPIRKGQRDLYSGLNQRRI

EC50 [1]: 0.15 nM | EC50 [2]: 0.21 nM
B1: W3311-2.306.4-z1-uIgG1K (antibody, V domains shown)
VH: QVQLVQSGAEVKKPGSSVKVSCKASGFAFTDYYIHWVRQAPGQGLEWMGWISPGNVNTKYNENFKGRVTITADKSTSTAYMELSSLRSEDTAVYYCARDGYSLYYFDYWGQGTLVTVSS
VL: DIVMTQSPDSLAVSLGERATINCKSSQSLLNSRTRKNYLAWYQQKPGQPPKLLIYWASTRQSGVPDRFSGSGSGTDFTLTISSLQAEDVAVYYCTQSHTLRTFGGGTKVEIK
notes: also called humanized anti-CD3 antibody; Humanized anti-CD3 mAb

EC50 [1]: 20.8 nM | Kd [3]: 4.7 nM | EC50 [2]: 26.4 nM
B2: W3448-T3U1.E17R-1.uIgG4V9 (bispecific antibody)
heavy 1: QVQLVQSGAEVKKPGSSVKVSCKASGFAFTDYYIHWVRQAPGQGLEWMGWISPGNVNTKYNENFKGRVTITADKSTSTAYMELSSLRSEDTAVYYCARDGYSLYYFDYWGQGTLVTVSSASTKGPSVFPLAPCSRSTSESTAALGCLVKDYFPEPVTVSWNSGALTSGVHTFPAVLQSSGLYSLSSVVTVPSSSLGTKTYTCNVDHKPSNTKVDKRVESKYGPPCPPCPAPEAAGGPSVFLFPPKPKDTLMISRTPEVTCVVVDVSQEDPEVQFNWYVDGVEVHNAKTKPREEQFNSTYRVVSVLTVLHQDWLNGKEYKCKVSNKGLPSSIEKTISKAKGQPREPQVYTLPPCQEEMTKNQVSLWCLVKGFYPSDIAVEWESNGQPENNYKTTPPVLDSDGSFFLYSRLTVDKSRWQEGNVFSCSVMHEALHNHYTQKSLSLSLGK
light 1: not shown
heavy 2: QVQLQESGPGLVKPSETLSLTCTVSGGSVSSGDYYWTWIRQSPGKGLEWIGHIYYSGNTNYNPSLKSRLTISIDTSKTQFSLKLSSVTAADTAIYYCVRDRVTGAFDIWGQGTMVTVLEDLKNVFPPEVAVFEPSEAEISHTQKATLVCLATGFYPDHVELSWWVNGKEVHSGVCTDPQPLKEQPALQDSRYALSSRLRVSATFWQNPRNHFRCQVQFYGLSENDEWTQDRAKPVTQIVSAEAWGRYGPPCPPCPAPEAAGGPSVFLFPPKPKDTLMISRTPEVTCVVVDVSQEDPEVQFNWYVDGVEVHNAKTKPREEQFNSTYRVVSVLTVLHQDWLNGKEYKCKVSNKGLPSSIEKTISKAKGQPREPQVCTLPPSQEEMTKNQVSLSCAVKGFYPSDIAVEWESNGQPENNYKTTPPVLDSDGSFFLVSRLTVDKSRWQEGNVFSCSVMHEALHNHYTQKSLSLSLGK
light 2: DIQMTQSPSSLSASVGDRVTITCQASQDISNYLNWYQQKPGKAPKLLIYDASNLETGVPSRFSGSGSGTDFTFTISSLQPEDIATYFCQHFDHLPLAFGGGTKVEIKPDIQNPDPAVYQLRDSKSSDKSVCLFTDFDSQTQVSQSKDSDVYITDKCVLDMRSMDFKSNSAVAWSQKSDFACANAFQNSIIPEDTFFPSPESS
notes: Four-chain Ig-like bispecific: anti-CD3 Fab arm (T3) and anti-EGFR chimeric Fab arm with TCR constant domains (U1); IgG4 Fc with S228P, F234A, L235A and knob/hole mutations already contained in the full-length entries; also called lead BsAb; anti-CD3/anti-EGFR bispecific antibody

EC50 [4]: 0.5 nM
B3: Panitumumab (antibody, human IgG2, V domains shown)
VH: QVQLQESGPGLVKPSETLSLTCTVSGGSVSSGDYYWTWIRQSPGKGLEWIGHIYYSGNTNYNPSLKSRLTISIDTSKTQFSLKLSSVTAADTAIYYCVRDRVTGAFDIWGQGTMVTV
VL: DIQMTQSPSSLSASVGDRVTITCQASQDISNYLNWYQQKPGKAPKLLIYDASNLETGVPSRFSGSGSGTDFTFTISSLQPEDIATYFCQHFDHLPLAFGGGTKVEIK
notes: the VH end in the benchmark IgG may differ; also called Anti-EGFR antibody; anti-EGFR mAb
